Measured values reported in IntAct's records for PubMed 16316992.

target: magi3_human MAGI3 (UniProt Q5TCQ9)
Sequence (Q5TCQ9 whole entry): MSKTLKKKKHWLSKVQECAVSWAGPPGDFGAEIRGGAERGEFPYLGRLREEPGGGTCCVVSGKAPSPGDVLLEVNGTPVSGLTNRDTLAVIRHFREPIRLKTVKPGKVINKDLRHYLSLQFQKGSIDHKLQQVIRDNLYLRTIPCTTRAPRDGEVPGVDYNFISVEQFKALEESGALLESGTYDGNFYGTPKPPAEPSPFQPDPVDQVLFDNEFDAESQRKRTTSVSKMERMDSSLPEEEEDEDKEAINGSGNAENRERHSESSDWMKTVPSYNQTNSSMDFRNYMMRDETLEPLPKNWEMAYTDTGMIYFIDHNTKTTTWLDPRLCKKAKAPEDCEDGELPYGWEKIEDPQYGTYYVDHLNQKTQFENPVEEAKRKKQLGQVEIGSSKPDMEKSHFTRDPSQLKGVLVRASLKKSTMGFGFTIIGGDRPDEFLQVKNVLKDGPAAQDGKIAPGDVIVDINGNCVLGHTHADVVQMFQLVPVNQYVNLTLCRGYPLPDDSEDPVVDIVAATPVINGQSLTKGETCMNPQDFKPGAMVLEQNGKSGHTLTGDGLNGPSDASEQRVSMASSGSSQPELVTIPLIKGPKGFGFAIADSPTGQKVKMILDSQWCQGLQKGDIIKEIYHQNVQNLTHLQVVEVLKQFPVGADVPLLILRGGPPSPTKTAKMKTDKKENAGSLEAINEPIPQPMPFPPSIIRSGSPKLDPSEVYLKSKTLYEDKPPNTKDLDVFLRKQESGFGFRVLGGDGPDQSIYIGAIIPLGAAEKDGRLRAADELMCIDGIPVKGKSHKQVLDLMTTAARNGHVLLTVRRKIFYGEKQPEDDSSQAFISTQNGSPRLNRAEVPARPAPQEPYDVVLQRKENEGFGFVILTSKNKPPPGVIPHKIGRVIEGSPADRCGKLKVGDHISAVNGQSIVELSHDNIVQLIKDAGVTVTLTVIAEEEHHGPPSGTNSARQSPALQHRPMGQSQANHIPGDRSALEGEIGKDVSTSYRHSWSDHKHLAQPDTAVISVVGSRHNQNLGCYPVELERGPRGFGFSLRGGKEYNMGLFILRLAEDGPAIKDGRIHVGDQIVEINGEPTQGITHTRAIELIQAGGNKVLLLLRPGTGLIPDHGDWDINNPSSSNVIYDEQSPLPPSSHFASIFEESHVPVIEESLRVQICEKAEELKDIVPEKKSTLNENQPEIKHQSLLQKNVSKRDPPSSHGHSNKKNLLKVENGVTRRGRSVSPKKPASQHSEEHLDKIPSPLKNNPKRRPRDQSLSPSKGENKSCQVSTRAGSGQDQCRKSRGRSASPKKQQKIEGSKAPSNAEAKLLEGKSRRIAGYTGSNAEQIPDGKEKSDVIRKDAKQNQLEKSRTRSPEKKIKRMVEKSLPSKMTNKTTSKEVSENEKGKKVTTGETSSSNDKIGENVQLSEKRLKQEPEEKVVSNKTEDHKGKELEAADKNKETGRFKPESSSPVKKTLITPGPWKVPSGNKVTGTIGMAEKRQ

Chain of Beta-1 adrenergic receptor (Homo sapiens), P08588 V477I (P08588 whole entry V477I): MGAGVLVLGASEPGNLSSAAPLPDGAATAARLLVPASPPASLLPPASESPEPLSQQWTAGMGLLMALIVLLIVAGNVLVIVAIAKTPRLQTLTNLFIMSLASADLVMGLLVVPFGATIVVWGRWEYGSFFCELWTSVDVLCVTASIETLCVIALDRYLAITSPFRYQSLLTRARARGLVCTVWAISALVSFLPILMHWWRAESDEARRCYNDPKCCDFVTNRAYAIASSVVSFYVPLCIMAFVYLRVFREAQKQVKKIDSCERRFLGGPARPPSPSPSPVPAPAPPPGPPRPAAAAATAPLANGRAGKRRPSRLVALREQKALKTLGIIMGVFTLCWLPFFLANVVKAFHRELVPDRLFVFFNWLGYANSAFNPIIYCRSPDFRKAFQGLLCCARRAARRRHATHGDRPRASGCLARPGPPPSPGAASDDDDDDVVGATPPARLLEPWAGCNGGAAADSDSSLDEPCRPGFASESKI
Chain of Beta-1 adrenergic receptor (Homo sapiens), P08588 E474A (P08588 whole entry E474A): as the sequence (P08588 whole entry V477I) above, with E474A, I477V counted along it
Chain of Beta-1 adrenergic receptor (Homo sapiens), P08588 E474T (P08588 whole entry E474T): as the sequence (P08588 whole entry V477I) above, with E474T, I477V counted along it
Chain of Beta-1 adrenergic receptor (Homo sapiens), P08588 V477L (P08588 whole entry V477L): as the sequence (P08588 whole entry V477I) above, with I477L counted along it
Chain of Beta-1 adrenergic receptor (Homo sapiens), P08588 K476R (P08588 whole entry K476R): as the sequence (P08588 whole entry V477I) above, with K476R, I477V counted along it
Chain of Beta-1 adrenergic receptor (Homo sapiens), P08588 V477M (P08588 whole entry V477M): as the sequence (P08588 whole entry V477I) above, with I477M counted along it
Chain of Beta-1 adrenergic receptor (Homo sapiens), P08588 S475A (P08588 whole entry S475A): as the sequence (P08588 whole entry V477I) above, with S475A, I477V counted along it
Chain of Beta-1 adrenergic receptor (Homo sapiens), P08588 V477A (P08588 whole entry V477A): as the sequence (P08588 whole entry V477I) above, with I477A counted along it

effect of a mutation on the interaction | Substance
decreasing interaction | Beta-1 adrenergic receptor (Homo sapiens), P08588 V477L
decreasing interaction | Beta-1 adrenergic receptor (Homo sapiens), P08588 V477M
decreasing interaction | Beta-1 adrenergic receptor (Homo sapiens), P08588 V477I

target: magi3_human MAGI3 (UniProt Q5TCQ9); remark: another data set of the same source

effect of a mutation on the interaction | Substance
decreasing interaction | Beta-1 adrenergic receptor (Homo sapiens), P08588 E474T
decreasing interaction | Beta-1 adrenergic receptor (Homo sapiens), P08588 V477A
decreasing interaction | Beta-1 adrenergic receptor (Homo sapiens), P08588 K476R
decreasing interaction | Beta-1 adrenergic receptor (Homo sapiens), P08588 S475A
decreasing interaction | Beta-1 adrenergic receptor (Homo sapiens), P08588 E474A
